For the assay, the target named is human ACE2 protein (hACE2), recombinant, His-tagged, Met1-Ser740 (human) (UniProt Q9BYF1). Briefly: ITC. Background: ITC needs no label: the signal is the heat of the interaction.
UniProt Q9BYF1, sequence (Q9BYF1 18-740): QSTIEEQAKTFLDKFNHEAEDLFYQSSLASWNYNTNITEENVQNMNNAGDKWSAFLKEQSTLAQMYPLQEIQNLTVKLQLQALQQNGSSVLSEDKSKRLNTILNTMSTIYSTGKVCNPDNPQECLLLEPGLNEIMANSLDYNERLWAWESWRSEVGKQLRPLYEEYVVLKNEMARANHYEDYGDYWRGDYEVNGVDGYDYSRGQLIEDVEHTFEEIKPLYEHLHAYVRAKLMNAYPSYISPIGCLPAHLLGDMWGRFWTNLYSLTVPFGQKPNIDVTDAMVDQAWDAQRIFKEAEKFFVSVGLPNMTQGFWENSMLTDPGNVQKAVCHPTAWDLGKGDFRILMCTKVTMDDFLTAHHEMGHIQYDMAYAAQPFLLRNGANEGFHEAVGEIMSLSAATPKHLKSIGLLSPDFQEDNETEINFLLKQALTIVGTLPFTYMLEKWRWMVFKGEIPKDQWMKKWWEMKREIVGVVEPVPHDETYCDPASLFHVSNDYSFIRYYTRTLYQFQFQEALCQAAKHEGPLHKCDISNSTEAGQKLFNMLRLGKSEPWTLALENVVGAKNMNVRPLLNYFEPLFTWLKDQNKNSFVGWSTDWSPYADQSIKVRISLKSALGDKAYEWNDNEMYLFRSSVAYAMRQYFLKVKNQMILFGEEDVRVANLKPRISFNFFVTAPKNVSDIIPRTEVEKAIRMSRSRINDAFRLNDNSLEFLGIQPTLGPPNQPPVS

Turning to “SARS-CoV-1 spike RBD (RBD^CoV1), Arg306-Phe527, His-tagged (domain or fragment)”, the Kd was 0.145 µM, the dH is -10.5 kcal/mol and the stoichiometry N worked out at 1.03.

For orientation: Kd means the concentration at which binding is half-saturated. Usually stoichiometry N stands for the number of molecules, sites or subunits per partner or assembly.

Source of the values: paper PMC9808565.
